In article PMC6432644:

Target: Hsp90AA1-MC, HA-tagged
Test: native gel or EMSA

Q: How did the stoichiometry N turn out when “Hsp90AA1-MC, HA-tagged (domain or fragment)” was run?
A: 2
